Tested on: Escherichia coli TOP10
Experiment: shrunken log2 fold change of peptide-encoding DNA abundance (4.5 h post-induction vs induction); higher = less antimicrobial activity (less host growth inhibition)
Details: time post-induction: 4.5 h; library: site-saturation at positions 5, 18, 19, 20
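Note: peptides expressed intracellularly from a pBAD plasmid library in pooled LB shake-flask culture, induced with 0.3% L-arabinose, DNA abundance read by NGS, three biological replicates, DESeq2 with apeglm shrinkage.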

Sequence: RRIRMRPPRLPRPRPRPFVGPRP
- shrunken log2 fold change: 0.0187

Sequence: RRIRQRPPRLPRPRPRPLWDPRP
- shrunken log2 fold change: -0.0887

Sequence: RRIRLRPPRLPRPRPRPCANPRP
- shrunken log2 fold change: -0.212

Sequence: RRIRERPPRLPRPRPRPAPTPRP
- shrunken log2 fold change: 0.199

Sequence: RRIRTRPPRLPRPRPRPGMGPRP
- shrunken log2 fold change: 0.104

Sequence: RRIRRRPPRLPRPRPRPRQLPRP
- shrunken log2 fold change: 0.394

Sequence: RRIRERPPRLPRPRPRPCSPPRP
- shrunken log2 fold change: -0.286

Sequence: RRIRRRPPRLPRPRPRPQRNPRP
- shrunken log2 fold change: 0.245

Sequence: RRIRDRPPRLPRPRPRPDMNPRP
- shrunken log2 fold change: 0.287

Sequence: RRIRHRPPRLPRPRPRPVKYPRP
- shrunken log2 fold change: -0.0563

Sequence: RRIRIRPPRLPRPRPRPHPHPRP
- shrunken log2 fold change: -0.496

Sequence: RRIRARPPRLPRPRPRPGGGPRP
- shrunken log2 fold change: 0.898

Sequence: RRIRGRPPRLPRPRPRPAERPRP
- shrunken log2 fold change: 0.388

Sequence: RRIRARPPRLPRPRPRPTCWPRP
- shrunken log2 fold change: 0.651

Sequence: RRIRARPPRLPRPRPRPGWDPRP
- shrunken log2 fold change: 0.811

Sequence: RRIRVRPPRLPRPRPRPDPVPRP
- shrunken log2 fold change: -0.00845

Sequence: RRIRSRPPRLPRPRPRPQAHPRP
- shrunken log2 fold change: -0.0418

Sequence: RRIRQRPPRLPRPRPRPQHTPRP
- shrunken log2 fold change: -0.69

Sequence: RRIRDRPPRLPRPRPRPAMSPRP
- shrunken log2 fold change: 0.184

Sequence: RRIRGRPPRLPRPRPRPYPEPRP
- shrunken log2 fold change: 0.0556

Sequence: RRIRYRPPRLPRPRPRPECPPRP
- shrunken log2 fold change: -0.00973

Sequence: RRIRSRPPRLPRPRPRPACDPRP
- shrunken log2 fold change: 0.119

Sequence: RRIRKRPPRLPRPRPRPPQAPRP
- shrunken log2 fold change: 0.0481

Sequence: RRIRHRPPRLPRPRPRPGWAPRP
- shrunken log2 fold change: 0.344

Sequence: RRIRPRPPRLPRPRPRPHPYPRP
- shrunken log2 fold change: -0.576

Sequence: RRIRYRPPRLPRPRPRPFTVPRP
- shrunken log2 fold change: -0.177

Sequence: RRIRYRPPRLPRPRPRPSFEPRP
- shrunken log2 fold change: -0.689

Sequence: RRIRLRPPRLPRPRPRPAIDPRP
- shrunken log2 fold change: -0.283

Sequence: RRIRPRPPRLPRPRPRPPMGPRP
- shrunken log2 fold change: 0.325

Sequence: RRIRTRPPRLPRPRPRPSYGPRP
- shrunken log2 fold change: -0.259

Sequence: RRIRNRPPRLPRPRPRPWLVPRP
- shrunken log2 fold change: -0.151

Sequence: RRIRDRPPRLPRPRPRPMTWPRP
- shrunken log2 fold change: 0.000751

Sequence: RRIRGRPPRLPRPRPRPPQTPRP
- shrunken log2 fold change: 1.31

Sequence: RRIRLRPPRLPRPRPRPPMAPRP
- shrunken log2 fold change: 0.0265

Sequence: RRIRTRPPRLPRPRPRPKYRPRP
- shrunken log2 fold change: -0.135

Sequence: RRIRFRPPRLPRPRPRPTPTPRP
- shrunken log2 fold change: 0.471

Sequence: RRIRMRPPRLPRPRPRPFNPPRP
- shrunken log2 fold change: -1.51

Sequence: RRIRWRPPRLPRPRPRPFWLPRP
- shrunken log2 fold change: 0.0108

Sequence: RRIRNRPPRLPRPRPRPQCMPRP
- shrunken log2 fold change: 2.42

Sequence: RRIRLRPPRLPRPRPRPYSVPRP
- shrunken log2 fold change: 0.0375

Sequence: RRIRGRPPRLPRPRPRPNWKPRP
- shrunken log2 fold change: 0.332

Sequence: RRIRTRPPRLPRPRPRPDSPPRP
- shrunken log2 fold change: -0.549

Sequence: RRIRMRPPRLPRPRPRPCAAPRP
- shrunken log2 fold change: 2.26

Sequence: RRIRERPPRLPRPRPRPKGAPRP
- shrunken log2 fold change: 0.216

Sequence: RRIRVRPPRLPRPRPRPAKTPRP
- shrunken log2 fold change: 0.0432

Sequence: RRIRPRPPRLPRPRPRPYKNPRP
- shrunken log2 fold change: -0.775

Sequence: RRIRIRPPRLPRPRPRPVVMPRP
- shrunken log2 fold change: -0.0043

Sequence: RRIRPRPPRLPRPRPRPSAGPRP
- shrunken log2 fold change: 0.243

Sequence: RRIRYRPPRLPRPRPRPQPCPRP
- shrunken log2 fold change: 0.025

Sequence: RRIRRRPPRLPRPRPRPREIPRP
- shrunken log2 fold change: 0.479

Sequence: RRIRNRPPRLPRPRPRPCLHPRP
- shrunken log2 fold change: -0.888

Sequence: RRIRKRPPRLPRPRPRPHQDPRP
- shrunken log2 fold change: 0.0154

Sequence: RRIRFRPPRLPRPRPRPFESPRP
- shrunken log2 fold change: 0.0452

Sequence: RRIRIRPPRLPRPRPRPIQDPRP
- shrunken log2 fold change: -0.205

Sequence: RRIRVRPPRLPRPRPRPTSWPRP
- shrunken log2 fold change: 0.383

Sequence: RRIRKRPPRLPRPRPRPEFPPRP
- shrunken log2 fold change: 0.0804

Sequence: RRIRYRPPRLPRPRPRPFRHPRP
- shrunken log2 fold change: -0.16

Sequence: RRIRNRPPRLPRPRPRPAETPRP
- shrunken log2 fold change: -0.119

Sequence: RRIRKRPPRLPRPRPRPGKAPRP
- shrunken log2 fold change: -0.0571

Sequence: RRIRQRPPRLPRPRPRPKGFPRP
- shrunken log2 fold change: -0.219

Sequence: RRIRMRPPRLPRPRPRPIYMPRP
- shrunken log2 fold change: -0.0618

Sequence: RRIRFRPPRLPRPRPRPVMVPRP
- shrunken log2 fold change: -1.14

Sequence: RRIRKRPPRLPRPRPRPIFRPRP
- shrunken log2 fold change: 0.132

Sequence: RRIRGRPPRLPRPRPRPQFWPRP
- shrunken log2 fold change: 0.553

Sequence: RRIRWRPPRLPRPRPRPKLCPRP
- shrunken log2 fold change: 0.0167

Sequence: RRIRYRPPRLPRPRPRPGYFPRP
- shrunken log2 fold change: -0.624

Sequence: RRIRDRPPRLPRPRPRPPCHPRP
- shrunken log2 fold change: -0.363

Sequence: RRIRGRPPRLPRPRPRPCLNPRP
- shrunken log2 fold change: 0.165

Sequence: RRIRDRPPRLPRPRPRPNSAPRP
- shrunken log2 fold change: -1.36

Sequence: RRIRIRPPRLPRPRPRPAHWPRP
- shrunken log2 fold change: 0.396

Sequence: RRIRYRPPRLPRPRPRPWWQPRP
- shrunken log2 fold change: -0.00151

Sequence: RRIRVRPPRLPRPRPRPSQAPRP
- shrunken log2 fold change: 0.0916

Sequence: RRIRFRPPRLPRPRPRPATGPRP
- shrunken log2 fold change: 1.21

Sequence: RRIRARPPRLPRPRPRPWWTPRP
- shrunken log2 fold change: 0.239

Sequence: RRIRHRPPRLPRPRPRPPPTPRP
- shrunken log2 fold change: 0.766

Sequence: RRIRGRPPRLPRPRPRPGRFPRP
- shrunken log2 fold change: 0.45

Sequence: RRIRLRPPRLPRPRPRPAQFPRP
- shrunken log2 fold change: 0.28

Sequence: RRIRCRPPRLPRPRPRPKTSPRP
- shrunken log2 fold change: -0.179

Sequence: RRIRQRPPRLPRPRPRPTAMPRP
- shrunken log2 fold change: 0.0174

Sequence: RRIRARPPRLPRPRPRPMVQPRP
- shrunken log2 fold change: -0.081

Sequence: RRIRNRPPRLPRPRPRPDDMPRP
- shrunken log2 fold change: -0.107

Sequence: RRIRFRPPRLPRPRPRPWKHPRP
- shrunken log2 fold change: -0.587

Sequence: RRIRGRPPRLPRPRPRPYGSPRP
- shrunken log2 fold change: -0.303

Sequence: RRIRHRPPRLPRPRPRPCPPPRP
- shrunken log2 fold change: -0.845

Sequence: RRIRSRPPRLPRPRPRPRESPRP
- shrunken log2 fold change: 0.092

Sequence: RRIRKRPPRLPRPRPRPLCAPRP
- shrunken log2 fold change: 0.604

Sequence: RRIRTRPPRLPRPRPRPNVGPRP
- shrunken log2 fold change: 0.202

Sequence: RRIRRRPPRLPRPRPRPTQVPRP
- shrunken log2 fold change: 0.677

Sequence: RRIRMRPPRLPRPRPRPLGSPRP
- shrunken log2 fold change: 0.169

Sequence: RRIRVRPPRLPRPRPRPMETPRP
- shrunken log2 fold change: -0.074

Sequence: RRIRQRPPRLPRPRPRPPHWPRP
- shrunken log2 fold change: 0.641

Sequence: RRIRPRPPRLPRPRPRPTYFPRP
- shrunken log2 fold change: -0.179

Sequence: RRIRYRPPRLPRPRPRPVYTPRP
- shrunken log2 fold change: -0.499

Sequence: RRIRMRPPRLPRPRPRPCEQPRP
- shrunken log2 fold change: 0.195

Sequence: RRIRGRPPRLPRPRPRPKLNPRP
- shrunken log2 fold change: 0.69

Sequence: RRIRSRPPRLPRPRPRPTRSPRP
- shrunken log2 fold change: 0.784

Sequence: RRIRRRPPRLPRPRPRPGDFPRP
- shrunken log2 fold change: 0.464

Sequence: RRIRYRPPRLPRPRPRPASNPRP
- shrunken log2 fold change: -0.0548

Sequence: RRIRNRPPRLPRPRPRPWWWPRP
- shrunken log2 fold change: 0.373

Sequence: RRIRERPPRLPRPRPRPNTEPRP
- shrunken log2 fold change: 0.0956

Sequence: RRIRSRPPRLPRPRPRPTEQPRP
- shrunken log2 fold change: -0.0196

Sequence: RRIRCRPPRLPRPRPRPTVYPRP
- shrunken log2 fold change: -0.915

Sequence: RRIRRRPPRLPRPRPRPPDAPRP
- shrunken log2 fold change: 0.768

Sequence: RRIRNRPPRLPRPRPRPFDEPRP
- shrunken log2 fold change: -0.305

Sequence: RRIRRRPPRLPRPRPRPQWQPRP
- shrunken log2 fold change: 0.435

Sequence: RRIRHRPPRLPRPRPRPAWKPRP
- shrunken log2 fold change: -0.0109

Sequence: RRIRERPPRLPRPRPRPSDTPRP
- shrunken log2 fold change: -0.287

Sequence: RRIRHRPPRLPRPRPRPLGPPRP
- shrunken log2 fold change: 0.191

Sequence: RRIRGRPPRLPRPRPRPKYSPRP
- shrunken log2 fold change: -0.156

Source: the supplement of paper PMC9112550, “Optimization of the antimicrobial peptide Bac7 by deep mutational scanning” (BMC Biology, 2022)
